In article PMC10063554:
pEC50: −log10 of the molar value.

How the values were obtained:
[1] = biological target: evolved PTH1R variant P34_05 (human) (UniProt Q03431); assay: AlphaScreen or HTRF; binding of 40 nM M-PTH(1–14) to membrane fractions supplemented with increasing concentrations of mini-Gs; data relative to PTH1R without mini-Gs; EC50 of mini-Gs read through ligand occupancy, apparent
[2] = biological target: evolved PTH1R variant P34_13 (human) (UniProt Q03431); assay: as above
[3] = biological target: SNAP-tagged NTR1-R167L (rat) (UniProt P20789); assay: AlphaScreen or HTRF; whole HEK293T cells with SNAP-Lumi4-Tb-labelled NTR1; 2 nM HL488-NT(8–13) tracer with a range of unlabeled NT(8–13); 4 h on ice; 20 mM HEPES pH 7.5, 100 mM NaCl, 3 mM MgCl2, 0.02% BSA
Chain of UniProt P20789 (P20789 43-424 R167L): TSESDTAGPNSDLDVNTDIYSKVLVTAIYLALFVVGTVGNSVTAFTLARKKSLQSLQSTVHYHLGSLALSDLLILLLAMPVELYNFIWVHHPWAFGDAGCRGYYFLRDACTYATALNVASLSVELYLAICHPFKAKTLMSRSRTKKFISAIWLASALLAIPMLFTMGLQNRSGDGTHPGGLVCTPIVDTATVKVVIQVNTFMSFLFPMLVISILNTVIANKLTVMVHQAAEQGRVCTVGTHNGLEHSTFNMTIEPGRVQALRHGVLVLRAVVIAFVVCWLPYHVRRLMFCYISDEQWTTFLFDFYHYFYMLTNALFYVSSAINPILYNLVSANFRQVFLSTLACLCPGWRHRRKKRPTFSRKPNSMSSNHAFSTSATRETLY

**Q.** How did the pEC50 [1] turn out when Mini-Gs 393 was run?
**A.** Its pEC50 is 6.55.

**Q.** What about the pEC50 [2] of the same substance?
**A.** The pEC50 was 6.42.

**Q.** For Neurotensin 8–13 (peptide), which fold increase in affinity against wild-type NTR1 [3] is on record?
**A.** Its fold increase in affinity against wild-type NTR1 is 3 fold.
